Laboratory results as given in the DeepSol protein solubility set.

Test: soluble on expression in E. coli; label from the status in PepcDB or PDB records

Sequence | soluble on expression in E. coli
MSVCLFLRFCSLRVRCRRLMCRPGEIIHIMWSALAWRWCAVMLTGSQRYAFCNDRFHNRKITRLRNNFMPNILPTDLCANTPTLAIHDNRGFAIRTLAYNRRDHNETIGELISRNRYNASGQLIASRDPRLEVDNFRYQYSLSGVPLRTDSVDSGSTLQLADSAGRTVLTLDAHHTRRWVEYETGEHSLGRPLSYHEQAKGGLKTVTDRFFYATNSEQDKSGNLNGQCVRHYDSAGLQALINQSIIGVPLQQQRRLLTNPKGPVDWFGEKENWGARLSEQPFVSHSTTDALGQLLTQTDAKGHIQRMAYNRAGQLIGSWLTIKNSAEQVILRSLTYSAAGQKLREESGNGVITEYRYEPQTQRLIGIKTTRPAKKDRPTRLQDLRYDYDPVGNILAIHNDAEATRFYRNQKIVPETTYRYDALYQLIEATGREADTNGIQNSQLPALASLNDSNQFVNYTRSYHYDRAGNLLKIQHTGASQYSTHITVSDSSNHGIQQQEGITARDIRSQFDAAGNQQQLQPGQPLRWNSRNQLQQVEPVPRNDGISDSESYLYDGGGSRVVKTSLHKTHNAIQTRSVIYLAGLELRSQYNGNNLTEDFQVITVGAAGRAQVRVLHWERGQPVDIVNDQLRYSFDNHLGSALIELDSDGDIISQEEYYPFGGTAVLASRNTVEAKYKTVRYSGKERDATGLYYYGYRYYQPWLGRWLSADPAGTIDGLNLYRMVRNNPVGLMDGDGLMTDKLLAKHEANFAKKNISSMAELKSEIEKLGLLPADSKQLFLHLNGGESDDEPSGSSGSSGSSEILENTSPHKIKNFHFISEINLATMPRPYYKDFSSTEDMLESAERLKAYGSIDTLLTLDLTSEDIPEFTSILADKGINYIAEKQYEIIDYFSEDELSSENIDRIVNMIKTIQNNNHKVGIHCAAGNGRSGLIATAMIINKKYTQSRINSFEEKNKLKEIIDKNKNEINVDAITYDAMKLVRKTNPFAGERTTDIKAAREYSRYLYSKQNR | not soluble
MQNELQTALFQAFDTLNLQRVKTFSVPPVTLCGPGSVSSCGQQAQTRGLKHLFVMADSFLHQAGMTAGLTRSLTVKGIAMTLWPCPVGEPCITDVCAAVAQLRESGCDGVIAFGGGSVLDAAKAVTLLVTNPDSTLAEMSETSVLQPRLPLIAIPTTAGTGSETTNVTVIIDAVSGRKQVLAHASLMPDVAILDAALTEGVPSHVTAMTGIDALTHAIEAYSALNATPFTDSLAIGAIAMIGKSLPKAVGYGHDLAARESMLLASCMAGMAFSSAGLGLCHAMAHQPGAALHIPHGLANAMLLPTVMEFNRMVCRERFSQIGRALRTKKSDDRDAINAVSELIAEVGIGKRLGDVGATSAHYGAWAQAALEDICLRSNPRTASLEQIVGLYAAAQ | soluble
MGSDKIHHHHHHMRIIEASAVHAAVRQMILAANRVLGDDVYAALKSSMESETSASGREVLRQLLENADLAASGGLALCQDTGAAVFFVEMGEDVRLGGGSLQHVLNSAMAQAYEEGCLRKSMCHPLTRCNTGDNRPAIVHTELVEGDRLTIRYMAKGGGSENMSRCTMLTPAQGWQGIKEFVVRRMAEAGPNPCPPTIVGVGIGGTFDLAPALAKRALFRRLDDVHPDAEVAAMETELLDALNALGIGPMGLGGRTTCLAVKIALHPCHIASLPVAVNVQCHSARHREVIL | not soluble
SRTVIPGAVKYTLVYDNGSSQAVIATAPEITPTELEATLRQAASHLYSYGRLGSRGNNQLTIRARTIIHAEPGVSVPVYLGKVQRTLTTREDPEMAVEVYLDKFAQLSKPTA | not soluble
MCLVNEFVSNSNMKPALNVSGDEKELILQLRRYLEEKLTYLLDQNGTVSIGVSGGSMPRVFSKAILSLPQEQLNWKRIRIFMVDERNVDLDSEESNQGEYLRLFPNELRDVFVPMQIFKDPCLTAQHYEISLRKYLLPEQLNNTARFDILFLGVGPDGHTASIFPGKERLEKITELNWVSVITDSPKPPPSRITLTLQTLQHAKNVAFIICGKQKAEIVRGICDRDQKYPAAQARPFNDKLTLFLDEDAATGVPDRDSSDSDSPPPFDG | not soluble
MKYFAYGSNMSLLRLKERVPSSKKLGIVTLKKHQLRFNMSGDDDSGKCDSFETNNHEDIVIGALFEIDENEKDALDRAESLGDGYDEKFVFVQSNSGEVFEALTYYAIKIDASLQPYSWYLNHVIIGAKETKLPTDYLAIIESVECIEDPDTSRDAKQRAMYVLEHHHHHH | not soluble
MGSDKIHHHHHHMNKKGNTEEIIERLFSILSSEKDSIEFLKAVSEFSKFYEIDKKEQERRSSEAKSFVKMALQDFESVKILYQSKIYSLAVYHLQQAVEKYVKAYVLAFFGLSKKEMKGYVGHDSPKAFIRLLDRYKRSLELFLKSIQKIGGLDTQFLKISDEDIRKLVRIVNMSRKQIAEMDSNQIKGIINATIKIKIALENKEIKNQILGLLSKLKNEASEIKSSDPSEKFILEKLIDSVDRVLNNLETLLKLSSTFLVLYMLSIITYPHATFARYPNKTLPPEKYDENLGIVQYFNEIVKLLDEVANLLVYEI | not soluble
NLSSSESQESTGQHQVTVAAVQGNVPRLGLDFNAQRRAVLANHVQETRKLTEQVDFIVWPENSSDVDPFADVRARNLINSAVASVQAPIVVGTVTTDEVGARNAMVVFDPETGEGDWHVKKFLQPFGEWMPWRDFFRKFSSLVDLAGDFKPGEGSGVVRVHAAQLGETVKLGISTCYEVAFDQAGRDAVLAGAQILATPTNNATFGFTDMTYQQLAMSRMRAIELDRAVVVAATSGVSAIVTPRGEVLQHSKIFESATLVQSLPLKETITFSARYGTLLE | not soluble
MAHHHHHHMKPYVWPTSDEAPPPSGRRTFPRQFQVNHGTLNLFSPAVPESQQCNTRAAAGSFSITGQRGILHQRNHNKESTATREFPVNGLRRVSAPQRSETPHGIRHIRDAAGAQQHVQVVNITDAYKDPMQMGPRRTGVKCLPQKSESDDVSVALSFAGSRQQLSARVLAAPVGKPSRPSLYPIDYSDQERFAQAVRDHAQKRTRGLAEFYVQLVRDTVGSVTSSTPKPAIVPWSLDQEPTRRVLTLGRCRDQLVALTAMPISLSDLALLLWGAGNGEVANSDSLTSDCDKDASLPLNCRPVPFCDFAAAFGQNSSDVRLARMKV | not soluble
MPGWRSICAVMGLTFTGCVFIQGSARAQDGNKATAVLELYTSQGCKSCPPADKNFAKYADDPNVLALSFHVNYWDYMGWRDTLATQDNTDRQNSYRNAFHAKMIYTPQAIINGAVEANGRNGAAINAKIAANKLDVPVSIQQLNDGRLSIDIGAGKKPRDPVHVVLFYFRDSATIPITEGENAGKAITYRNTVSDIDTIGMWDGKPLKIELPASELKRKDVTGCAVVLQETRSDNSLGPMHGAAMFKQKRPVSFLEHHHHHH | not soluble
MKNKLPPFIEIYRALIATPSISATEEALDQSNADLITLLADWFKDLGFNVEVQPVPGTRNKFNMLASTGQGAGGLLLAGHTDTVPFDDGRWTRDPFTLTEHDGKLYGLGTADMKGFFAFILDALRDVDVTKLKKPLYILATADEETSMAGARYFAETTALRPDCAIIGEPTSLQPVRAHKGHISNAIRIQGQSGHSSDPARGVNAIELMHDAIGHILQLRDNLKERYHYEAFTVPYPTLNLGHIHGGDASNRICAWCELHMDIRPLPGMTLNELNGLLNDALAPVSERWPGRLTVDELHPPIPGYECPPNHQLVEVVEKLLGAKTEVVNYCTEAPFIQTLCPTLVLGPGSINQAHQPDEYLETRFIKPTRELITQVIHHFCWH | soluble
MRYRDFDIFKFWFRAVEKFAPWVHKIYLITDNQVPDWLDTRNSKLTVIDHRDIMDADWLPTFNSNAIELNAYKIKNLSEKFVLFNDDTILNSYVDKVDFFDENYPKDIYVESPIMATKGSVDHIMVNNVEIINEFFEKKNFYKKNLTKVFNPKIGIKLLRTLALLPSSKFAGFWNSHLPISYNKTTFETVWSNCEGKLVATSKNKFRTAYDVSHWLMRYWQLASGNYHLQNNIGKVYDLSSQNIDEVVTQLQRSHSKIICLNDNDELDDYEGVKGKLVTTLNEKFSEKSKFELLEHHHHHH | not soluble
